The values that follow are results of earlier work, collected in paper PMC12203939.

For series [1], the target named is PKA regulatory subunit RII (Homo sapiens) (UniProt P13861).
Series [2] deals with PKA regulatory subunit RI (Homo sapiens) (UniProt P10644).
PKA regulatory subunit RI (Homo sapiens), sequence (P10644 whole entry): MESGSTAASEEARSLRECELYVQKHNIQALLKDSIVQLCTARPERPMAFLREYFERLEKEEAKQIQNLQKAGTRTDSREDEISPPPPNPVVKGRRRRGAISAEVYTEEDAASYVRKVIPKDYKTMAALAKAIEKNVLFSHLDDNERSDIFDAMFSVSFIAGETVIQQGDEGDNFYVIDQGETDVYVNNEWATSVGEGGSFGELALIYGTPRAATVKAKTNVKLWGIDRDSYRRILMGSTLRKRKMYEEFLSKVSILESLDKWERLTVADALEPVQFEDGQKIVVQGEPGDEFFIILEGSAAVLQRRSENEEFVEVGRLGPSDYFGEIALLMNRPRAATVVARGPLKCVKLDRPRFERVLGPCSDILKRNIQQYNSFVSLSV

OPA1, sequence (O60313 195-960): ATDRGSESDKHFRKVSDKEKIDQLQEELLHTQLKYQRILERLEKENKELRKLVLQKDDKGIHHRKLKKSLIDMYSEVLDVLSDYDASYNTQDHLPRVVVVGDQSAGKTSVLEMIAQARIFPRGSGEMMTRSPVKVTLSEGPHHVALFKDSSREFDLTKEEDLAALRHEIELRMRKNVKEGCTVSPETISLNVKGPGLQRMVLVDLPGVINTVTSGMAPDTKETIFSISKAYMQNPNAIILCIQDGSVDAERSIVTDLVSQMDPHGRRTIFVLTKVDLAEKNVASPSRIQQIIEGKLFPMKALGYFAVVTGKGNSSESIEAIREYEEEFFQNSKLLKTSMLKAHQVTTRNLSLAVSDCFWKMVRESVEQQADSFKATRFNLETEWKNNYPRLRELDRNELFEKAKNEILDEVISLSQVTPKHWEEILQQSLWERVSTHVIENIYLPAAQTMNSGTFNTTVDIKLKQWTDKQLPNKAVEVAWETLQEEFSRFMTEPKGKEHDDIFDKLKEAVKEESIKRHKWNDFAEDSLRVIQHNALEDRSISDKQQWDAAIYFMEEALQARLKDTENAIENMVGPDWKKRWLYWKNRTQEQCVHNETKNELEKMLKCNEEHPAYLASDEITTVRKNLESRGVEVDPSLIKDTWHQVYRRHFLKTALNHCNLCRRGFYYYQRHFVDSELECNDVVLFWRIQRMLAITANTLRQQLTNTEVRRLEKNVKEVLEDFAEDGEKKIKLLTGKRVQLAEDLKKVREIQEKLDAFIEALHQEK
PKA regulatory subunit RII (Homo sapiens), sequence (P13861 2-404): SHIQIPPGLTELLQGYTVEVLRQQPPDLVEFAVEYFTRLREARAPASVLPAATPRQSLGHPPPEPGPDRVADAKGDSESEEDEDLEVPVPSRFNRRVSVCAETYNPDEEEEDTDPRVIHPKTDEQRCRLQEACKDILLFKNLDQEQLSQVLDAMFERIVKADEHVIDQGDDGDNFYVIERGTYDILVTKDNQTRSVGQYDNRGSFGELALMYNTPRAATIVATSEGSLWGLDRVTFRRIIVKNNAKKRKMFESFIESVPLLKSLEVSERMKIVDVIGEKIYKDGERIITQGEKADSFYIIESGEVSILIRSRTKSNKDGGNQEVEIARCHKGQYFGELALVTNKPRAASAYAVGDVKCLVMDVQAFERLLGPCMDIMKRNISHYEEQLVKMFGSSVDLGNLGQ

The term Kd denotes the equilibrium constant for the complex coming apart. OPA1 (from UniProt O60313): the Kd in series [1] is 14 nM; in series [2], 12.5 nM.
